{"source": "paper doi:10.1101/2022.10.17.512631", "about": "(bioRxiv, 2022)", "binders": {"B1": {"name": "HEXIM1 (natural protein)", "chain": "MAEPFLSEYQHQPQTSNCTGAAAVQEELNPERPPGAEERVPEEDSRWQSRAFPQLGGRPGPEGEGSLESQPPPLQTQACPESSCLREGEKGQNGDDSSAGGDFPPPAEVEPTPEAELLAQPCHDSEASKLGAPAAGGEEEWGQQQRQLGKKKHRRRPSKKKRHWKPYYKLTWEEKKKFDEKQSLRASRIRAEMFAKGQPVAPYNTTQFLMDDHDQEEPDLKTGLYSKRAAAKSDDTSDDDFMEEGGEEDGGSDGMGGDGSEFLQRDFSETYERYHTESLQNMSKQELIKEYLELEKCLSRMEDENNRLRLESKRLGGDDARVRELELELDRLRAENLQLLTENELHRQQERAPLSKFGD"}}, "molecular_target": "METTL3 (human, UniProt Q86U44 1-580)", "sequence (Q86U44 whole entry)": "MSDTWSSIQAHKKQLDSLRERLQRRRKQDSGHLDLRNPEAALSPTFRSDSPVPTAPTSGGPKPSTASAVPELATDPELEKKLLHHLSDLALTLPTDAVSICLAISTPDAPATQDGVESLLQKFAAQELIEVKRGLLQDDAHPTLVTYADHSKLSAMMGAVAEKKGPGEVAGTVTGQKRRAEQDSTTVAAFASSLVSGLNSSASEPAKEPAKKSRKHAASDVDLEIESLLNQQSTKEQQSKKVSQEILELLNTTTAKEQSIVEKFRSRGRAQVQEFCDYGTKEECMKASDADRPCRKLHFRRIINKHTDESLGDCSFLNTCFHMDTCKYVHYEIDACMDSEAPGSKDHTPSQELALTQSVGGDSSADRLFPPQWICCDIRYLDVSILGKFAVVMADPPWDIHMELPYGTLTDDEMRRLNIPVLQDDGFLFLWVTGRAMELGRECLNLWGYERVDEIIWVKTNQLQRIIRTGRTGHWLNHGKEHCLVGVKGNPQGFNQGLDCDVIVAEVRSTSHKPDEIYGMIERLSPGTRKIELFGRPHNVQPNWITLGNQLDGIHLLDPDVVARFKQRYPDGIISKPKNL", "assay": "SPR"}
{"binder": "B1", "values": [{"measurement": "Kd", "result": "~270", "unit": "nM"}]}
